From publication PMC9734910

Molecular target: PDF-2180 S ectodomain trimer (PDF-2180 (bat coronavirus, infects Pipisrellus hesperidus) | not stated)
Assay: cryo-EM structure

PDF-2180 S ectodomain trimer (domain or fragment)
stoichiometry N: 3
